From IntAct's records for PubMed 18084303

B1: Neuroligin-1 (Mus musculus), Q99K10-1 (parent)
chain: MALPRCMWPNYVWRAMMACVVHRGSGAPLTLCLLGCLLQTFHVLSQKLDDVDPLVTTNFGKIRGIKKELNNEILGPVIQFLGVPYAAPPTGEHRFQPPEPPSPWSDIRNATQFAPVCPQNIIDGRLPEVMLPVWFTNNLDVVSSYVQDQSEDCLYLNIYVPTEDGPLTKKHTDDLGDNDGAEDEDIRDSGGPKPVMVYIHGGSYMEGTGNLYDGSVLASYGNVIVITVNYRLGVLGFLSTGDQAAKGNYGLLDLIQALRWTSENIGFFGGDPLRITVFGSGAGGSCVNLLTLSHYSEGNRWSNSTKGLFQRAIAQSGTALSSWAVSFQPAKYARILATKVGCNVSDTVELVECLQKKPYKELVDQDVQPARYHIAFGPVIDGDVIPDDPQILMEQGEFLNYDIMLGVNQGEGLKFVENIVDSDDGVSASDFDFAVSNFVDNLYGYPEGKDVLRETIKFMYTDWADRHNPETRRKTLLALFTDHQWVAPAVATADLHSNFGSPTYFYAFYHHCQTDQVPAWADAAHGDEVPYVLGIPMIGPTELFPCNFSKNDVMLSAVVMTYWTNFAKTGDPNQPVPQDTKFIHTKPNRFEEVAWTRYSQKDQLYLHIGLKPRVKEHYRANKVNLWLELVPHLHNLNDISQYTSTTTKVPSTDITLRPTRKNSTPVTSAFPTAKQDDPKQQPSPFSVDQRDYSTELSVTIAVGASLLFLNILAFAALYYKKDKRRHDVHRRCSPQRTTTNDLTHAPEEEIMSLQMKHTDLDHECESIHPHEVVLRTACPPDYTLAMRRSPDDIPLMTPNTITMIPNTIPGIQPLHTFNTFTGGQNNTLPHPHPHPHSHSTTRV

Variants of: B1
Settings: with NRXN1, P58400-1
NRXN1, P58400-1, sequence (P58400 other isoform, or with tags, fused parts or gaps): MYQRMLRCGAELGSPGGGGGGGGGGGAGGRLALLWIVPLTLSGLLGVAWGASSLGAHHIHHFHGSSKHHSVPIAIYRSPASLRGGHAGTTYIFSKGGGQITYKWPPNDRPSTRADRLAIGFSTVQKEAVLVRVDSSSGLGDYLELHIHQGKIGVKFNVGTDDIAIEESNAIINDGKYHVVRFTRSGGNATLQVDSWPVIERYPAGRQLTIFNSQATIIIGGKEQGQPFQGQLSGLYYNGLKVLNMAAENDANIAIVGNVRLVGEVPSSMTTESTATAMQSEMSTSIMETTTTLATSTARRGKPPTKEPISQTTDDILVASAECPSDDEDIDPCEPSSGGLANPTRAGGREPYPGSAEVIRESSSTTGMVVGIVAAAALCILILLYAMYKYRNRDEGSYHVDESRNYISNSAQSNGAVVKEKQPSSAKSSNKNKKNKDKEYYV

effect of a mutation on the interaction	Variant
disrupting interaction	N400A
disrupting interaction	E397A
